Key:
[1] = biological target: rat CD47 on rat red blood cells (rat) (UniProt P97829); test: flow cytometry on rat RBCs
[2] = biological target: human CD47 on human red blood cells (human) (UniProt Q08722); test: flow cytometry on human RBCs
[3] = biological target: mouse CD47 on mouse red blood cells (mouse) (UniProt Q61735); test: flow cytometry on mouse RBCs
[4] = biological target: cynomolgus CD47 on cynomolgus red blood cells (cynomolgus); test: flow cytometry on cynomolgus RBCs

Chain of mouse CD47 on mouse red blood cells (mouse) (Q61735 19-303): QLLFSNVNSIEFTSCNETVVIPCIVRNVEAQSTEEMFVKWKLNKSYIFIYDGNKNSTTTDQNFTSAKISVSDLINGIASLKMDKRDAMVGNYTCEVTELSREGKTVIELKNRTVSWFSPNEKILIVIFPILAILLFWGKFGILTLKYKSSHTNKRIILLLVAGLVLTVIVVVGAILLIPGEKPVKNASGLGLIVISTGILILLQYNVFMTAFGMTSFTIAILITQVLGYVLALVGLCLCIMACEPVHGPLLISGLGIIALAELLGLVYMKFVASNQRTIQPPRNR
Chain of rat CD47 on rat red blood cells (rat) (P97829 19-303): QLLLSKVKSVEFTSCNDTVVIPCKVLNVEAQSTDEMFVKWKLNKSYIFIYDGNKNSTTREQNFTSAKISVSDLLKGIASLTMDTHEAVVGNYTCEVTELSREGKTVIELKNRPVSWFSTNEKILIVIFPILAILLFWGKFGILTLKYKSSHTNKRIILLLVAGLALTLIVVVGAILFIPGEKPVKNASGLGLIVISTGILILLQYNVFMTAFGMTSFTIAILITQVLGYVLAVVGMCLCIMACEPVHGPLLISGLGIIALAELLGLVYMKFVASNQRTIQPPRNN

- MFI [1]: 3.33
- MFI [2]: 3.65
- MFI [3]: 3.21
- MFI [4]: 3.95
Substance: Isotype control (antibody)

From patent US20250277031A1
